# Test results taken from article PMC3144224, “Control of Gene Expression by the Retinoic Acid-Related Orphan Receptor Alpha in HepG2 Human Hepatoma Cells”.
# T1: RORα1 (NR1F1) (human, UniProt P35398 1-523)
# T1 sequence: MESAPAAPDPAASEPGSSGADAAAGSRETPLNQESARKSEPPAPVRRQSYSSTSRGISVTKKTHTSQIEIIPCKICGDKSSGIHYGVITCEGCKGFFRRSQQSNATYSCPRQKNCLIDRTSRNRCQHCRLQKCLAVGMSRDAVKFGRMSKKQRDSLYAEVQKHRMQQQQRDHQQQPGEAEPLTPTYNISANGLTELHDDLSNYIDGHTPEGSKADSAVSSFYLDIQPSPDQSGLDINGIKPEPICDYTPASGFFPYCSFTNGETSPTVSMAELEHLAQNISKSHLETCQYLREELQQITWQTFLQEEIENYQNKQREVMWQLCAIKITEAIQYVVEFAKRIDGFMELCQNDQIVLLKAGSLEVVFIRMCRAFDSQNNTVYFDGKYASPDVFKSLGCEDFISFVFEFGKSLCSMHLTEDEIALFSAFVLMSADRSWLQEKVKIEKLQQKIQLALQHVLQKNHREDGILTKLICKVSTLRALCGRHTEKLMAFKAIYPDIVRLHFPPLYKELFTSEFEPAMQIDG
# B1: SPARC-RORE (dsDNA)
# DNA 1: CGGTAGGCTGTTCTGGGTCATCCCTCCAGG
# DNA 2: ACGTCCTGGAGGGATGACCCAGAACAGCCT
# Target: T1, RORα1 (NR1F1)
# Assay: EMSA; 15 mM Tris-HCl pH 7.5, 50 mM KCl, 15 mM NaCl, 1 mM MgCl2, 0.03 mM EDTA, 1 mM DTT, 7% glycerol, 50 ng poly(dI-dC), 50 ng unspecific ss oligonucleotides, 0.15 ng
# Conditions: protein: ivt; label: 32P (Klenow fill-in, [α-32P]-dATP) when used as probe
binder,measurement,value
B1,binding result,binds
